Assay results as given in PMC10965115.
Like-named read-outs stand apart in the source and are kept apart here. Values belong to the molecule of their own block, whether it stands above or below them.

Legend:
Test in all cases: BLI
IgG1 mAb (human) [1] = target: IgG1 mAb (human)
IgG1 RUBY v9 #15 (human) [2] = target: IgG1 RUBY v9 #15 (human)
[3] = target: IgG1 LALA RUBY #10 (human)
[4] = target: IgG1 LALA RUBY v9 #2 (human)
IgG2 mAb (human) [5] = target: IgG2 mAb (human)
IgG2 RUBY v9 #16 (human) [6] = target: IgG2 RUBY v9 #16 (human)
IgG1 LALA mAb (human) = target: IgG1 LALA mAb (human)
IgG1 mAb (human) [7] = target: IgG1 mAb (human); remark: listed apart in the source
IgG1 RUBY v9 #15 (human) [8] = target: IgG1 RUBY v9 #15 (human); remark: listed apart in the source
IgG2 mAb (human) [9] = target: IgG2 mAb (human); remark: listed apart in the source
IgG2 RUBY v9 #16 (human) [10] = target: IgG2 RUBY v9 #16 (human); remark: listed apart in the source

Molecule: hFcγRIIIa 176 V (from UniProt P08637) (receptor)
Kd (IgG1 mAb (human) [1]): 50 nM
koff (IgG1 mAb (human) [1]): 0.03 s⁻¹
kon (IgG1 mAb (human) [1]): 600000 M⁻¹ s⁻¹
Kd (IgG1 RUBY v9 #15 (human) [2]): 30 nM
koff (IgG1 RUBY v9 #15 (human) [2]): 0.03 s⁻¹
kon (IgG1 RUBY v9 #15 (human) [2]): 1e+06 M⁻¹ s⁻¹

Molecule: hFcγRIIa (from UniProt P12318) (receptor)
Kd (IgG1 mAb (human) [1]): 300 nM

Molecule: recombinant human FcRn (from UniProt P55899) (receptor)
Kd (IgG1 mAb (human) [1]): 500 nM
koff (IgG1 mAb (human) [1]): 0.05 s⁻¹
kon (IgG1 mAb (human) [1]): 100000 M⁻¹ s⁻¹
Kd (IgG2 mAb (human) [5]): 600 nM
koff (IgG2 mAb (human) [5]): 0.1 s⁻¹
kon (IgG2 mAb (human) [5]): 200000 M⁻¹ s⁻¹
Kd (IgG2 RUBY v9 #16 (human) [6]): 1000 nM
koff (IgG2 RUBY v9 #16 (human) [6]): 0.2 s⁻¹
kon (IgG2 RUBY v9 #16 (human) [6]): 200000 M⁻¹ s⁻¹
Kd (IgG1 RUBY v9 #15 (human) [2]): 600 nM
koff (IgG1 RUBY v9 #15 (human) [2]): 0.08 s⁻¹
kon (IgG1 RUBY v9 #15 (human) [2]): 100000 M⁻¹ s⁻¹
Kd [3]: 600 nM
koff [3]: 0.08 s⁻¹
kon [3]: 100000 M⁻¹ s⁻¹
Kd (IgG1 LALA mAb (human)): 500 nM
koff (IgG1 LALA mAb (human)): 0.1 s⁻¹
kon (IgG1 LALA mAb (human)): 200000 M⁻¹ s⁻¹

B1: mFcγRI (receptor)
chain: EVVNATKAVITLQPPWVSIFQKENVTLWCEGPHLPGDSSTQWFINGTAVQISTPSYSIPEASFQDSGEYRCQIGSSMPSDPVQLQIHNDWLLLQASRRVLTEGEPLALRCHGWKNKLVYNVVFYRNGKSFQFSSDSEVAILKTNLSHSGIYHCSGTGRHRYTSAGVSITVKELFTTPVLRASVSSPFPEGSLVTLNCETNLLLQRPGLQLHFSFYVGSKILEYRNTSSEYHIARAEREDAGFYWCEVATEDSSVLKRSPELELQVLGPQSSAP
Kd (IgG1 mAb (human) [7]): 40 nM
koff (IgG1 mAb (human) [7]): 0.02 s⁻¹
kon (IgG1 mAb (human) [7]): 600000 M⁻¹ s⁻¹
Kd (IgG1 RUBY v9 #15 (human) [8]): 40 nM
koff (IgG1 RUBY v9 #15 (human) [8]): 0.03 s⁻¹
kon (IgG1 RUBY v9 #15 (human) [8]): 700000 M⁻¹ s⁻¹

B2: mFcγRIII (receptor)
chain: ALPKAVVKLDPPWIQVLKEDMVTLMCEGTHNPGNSSTQWFHNGRSIRSQVQASYTFKATVNDSGEYRCQMEQTRLSDPVDLGVISDWLLLQTPQRVFLEGETITLRCHSWRNKLLNRISFFHNEKSVRYHHYKSNFSIPKANHSHSGDYYCKGSLGSTQHQSKPVTITVQDPATTSSISLVWYHT
Kd (IgG1 mAb (human) [7]): 20 nM
koff (IgG1 mAb (human) [7]): 0.006 s⁻¹
kon (IgG1 mAb (human) [7]): 400000 M⁻¹ s⁻¹
Kd (IgG2 mAb (human) [9]): 10 nM
koff (IgG2 mAb (human) [9]): 0.008 s⁻¹
kon (IgG2 mAb (human) [9]): 700000 M⁻¹ s⁻¹
Kd (IgG2 RUBY v9 #16 (human) [10]): 10 nM
koff (IgG2 RUBY v9 #16 (human) [10]): 0.006 s⁻¹
kon (IgG2 RUBY v9 #16 (human) [10]): 600000 M⁻¹ s⁻¹
Kd (IgG1 RUBY v9 #15 (human) [8]): 10 nM
koff (IgG1 RUBY v9 #15 (human) [8]): 0.01 s⁻¹
kon (IgG1 RUBY v9 #15 (human) [8]): 700000 M⁻¹ s⁻¹

Now from value to molecule:

Kd [3]: 70 nM
koff [3]: 0.007 s⁻¹
kon [3]: 100000 M⁻¹ s⁻¹
Molecule: recombinant mouse FcRn (from UniProt Q61559) (receptor)

Kd (IgG1 mAb (human) [1]): 50 nM
kon (IgG1 mAb (human) [1]): 400000 M⁻¹ s⁻¹
Kd (IgG1 RUBY v9 #15 (human) [2]): 40 nM
Molecule: mFcγRIV (from UniProt A0A0B4J1G0) (receptor)

Kd [4]: 40 nM
Molecule: hFcγRI (from UniProt P12314) (receptor)
